From article PMC3162602, “Laforin, a Dual Specificity Phosphatase Involved in Lafora Disease, Is Present Mainly as Monomeric Form with Full Phosphatase Activity” (PLoS ONE, 2011)
One block for each molecule: values may come before it.

Legend:
[1] = biological target: Cm-laforin-HIS6 (Cyanidioschyzon merolae); test: SEC; SEX4-HIS6 on Superdex-75 and Cm-laforin-HIS6 on Superdex-200 after Ni-NTA; multiple peaks
Hs-laforin-HIS6 (human) = Hs-laforin-HIS6 (human) (UniProt O95278); test: SEC; Ni-NTA-purified Hs-laforin-HIS6 on HiLoad 16/60 Superdex 75; two peaks, A (dimer) and B (monomer)
[2] = biological target: the molecule itself; test: SEC; SEX4-HIS6 on Superdex-75 and Cm-laforin-HIS6 on Superdex-200 after Ni-NTA; multiple peaks

stoichiometry N [1]: 2
Molecule: Cm-laforin-HIS6 (enzyme)

stoichiometry N (Hs-laforin-HIS6 (human)): 2
Molecule: Hs-laforin-HIS6 (from UniProt O95278 1-331) (enzyme)

B1: At-SEX4-HIS6(Δ81) (enzyme, Arabidopsis thaliana, UniProt Q9FEB5 82-379, looked up)
chain: QAMGAVLTYRHELGMNYNFIRPDLIVGSCLQTPEDVDKLRKIGVKTIFCLQQDPDLEYFGVDISSIQAYAKKYSDIQHIRCEIRDFDAFDLRMRLPAVVGTLYKAVKRNGGVTYVHCTAGMGRAPAVALTYMFWVQGYKLMEAHKLLMSKRSCFPKLDAIRNATIDILTGLKRKTVTLTLKDKGFSRVEISGLDIGWGQRIPLTLDKGTGFWILKRELPEGQFEYKYIIDGEWTHNEAEPFIGPNKDGHTNNYAKVVDDPTSVDGTTRERLSSEDPELLEEERSKLIQFLETCSEAEV
notes: SEX4 (Starch EXcess4), Arabidopsis thaliana glucan phosphatase; construct pET21a At-SEX4-HIS6(Δ81), printed as a 32 kDa protein; Δ81 read as lacking the first 81 residues; also called Starch EXcess4; source: bacteria (E. coli), purified (Ni-NTA, Superdex-75)
stoichiometry N [2]: 2
